Legend:
[1] = target: human epidermal growth factor receptor (human EGFR) (human) (UniProt P00533); assay: flow cytometry, Beckman Coulter CytoFLEX S; WI-38 cells stained with PE-anti hEGFR antibody for 30 minutes on ice
[2] = target: human epidermal growth factor receptor (human EGFR) (human) (UniProt P00533); assay: flow cytometry, BD FACS Aria; RencaEGFR M1 H cells (human EGFR on the cell surface) stained with PE-anti hEGFR antibody for 30 minutes on ice
[3] = target: human epidermal growth factor receptor (human EGFR) (human) (UniProt P00533); assay: flow cytometry, BD FACS Aria; MCF-7 cells (low EGFR expression) stained with PE-anti hEGFR antibody for 30 minutes on ice
[4] = target: human epidermal growth factor receptor (human EGFR) (human) (UniProt P00533); assay: flow cytometry, BD FACS Aria; WI-38 cells stained with PE-anti hEGFR antibody for 30 minutes on ice
[5] = target: human epidermal growth factor receptor (human EGFR) (human) (UniProt P00533); assay: flow cytometry, Beckman Coulter CytoFLEX S; U87MG cells stained with PE-anti hEGFR antibody for 30 minutes on ice

- MFI [1]: 1100
- MFI [2]: 834000
- MFI [3]: 2670
- MFI [4]: 53300
- MFI [5]: 1020
Substance: PE-anti hEGFR antibody (Biolegend, Cat #352904)
